Laboratory results: the nanobody polyreactivity screen of Harvey et al. (2022)

assay: yeast display, Sf9 membrane polyspecificity reagent, FACS + sequencing; frameworks hold sequencing errors
Method in brief: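 Synthetic nanobody libraries on Saccharomyces cerevisiae BJ5465 were galactose-induced for 36–48 hours, stained 1 hour at 4 °C with 10% biotinylated, detergent-solubilized Sf9 membrane reagent and enriched on streptavidin microbeads. FACS then separated cells into low and high (top ~1%) gates by anti-HA (expression) and streptavidin (reagent binding) fluorescence. Genes were colony-PCR amplified, MiSeq 2 × 250 sequenced and CDR-length filtered. A clone's polyreactivity label is that of its gate of origin.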

Sequence	polyreactivity (PSR sort gate)
QVQLVESGGGLVQAGGSLRLSCAASGSIFTVYAMGWYRQAPGKERELVAAIRRTGSRTYYADSVKGRFTISRDNAKNTVYLQMNSLKPEDTAVYYCAADGWYDRRSVRLNYWGQGTQVTVSS	high polyreactivity
QDQLVESRGGLVQAGGSLRLSCAASGLIFPVYAMGWYRQAPRKEREFVASIWRGGTTYYADSVKGRFTISRDNAKNTVYLQMISLKPEDTAVYYCAAVVYSRGYYWGQGTQVTVSS	high polyreactivity
QVQIVESGGGLVQAGGSLRLSCAASVRTQRYYDMGCYRQAPVKERELVAAISSGGSTYYGDSLKGRFSISRDNAKNTVYLEMNSLKPEDTEVYYCAKRVSNWVSGGGYYYWGQCTQVTVSS	high polyreactivity
QVQLVESGGGLVQAGGSLRLSCAASGLTLQPYAMGWYRQAPGKERELVAAITSGGSTYYADSVKGRFTISRDNAKNTVYLQMNSLKPEDTAVYYCAAVGRHYYVKFDYWGQGTQVTVSS	low polyreactivity
QVQLVESGGGLVQAGGSLRLSCAASGFIFSSNDMGWYRQAPGKERELVAAIDYSGGSTYYADSVKGRFTISRDNAKNTVYLQMNSLKPEDTAVYYCAATVYNPTDYYSPYYYWGQGTQVTGSS	low polyreactivity
QVQLVESGGGLVQAGGSLRLSCAASGGTFSLNAMGWYRQAPGKEREFVAGITWGGGRTYYADSVKGRFTISRDNAKNTVYLQMNSLKPEDTAVYYCAAGAWRGPYSGYYYWGQGTQVTVSS	low polyreactivity
QVQLVESGGGLLQAGGSLRLSSAASGRTFPRYAMGWYRQAPGKERELVAAISVRAGITYYADSVKGRFTISRDNAKNTVYLQMNSLKPEDTAVYYCAKDHWTTSYDEGDYWGQGTQVTVSS	low polyreactivity
QVQLVESGGGLVQAGGSLRLSCAASGFTFARYAMGWYRQAPGKERELVAAITSGSSTYYADSVKGRFTISRDNAKNTVYLQMNSLKPEDTAVYYCAARSFLQSYYYWGQGTQVTVSS	high polyreactivity
QVQLVESGGGLVQAGGSLRLSCAASGSNFRYYAMGWYSPAPGKERELVAAISQSGGSTYSADSVKGRFTISRDNAKTTVYLQMNSLKPEDTAVYYCAARRVDTRGHVRYRYYYWGQGTQVTVSS	high polyreactivity
QVQLVESGGGLVQAGGSLRLSCAASGITFVKNVMGWYRQAPGKERELVAAISTIGARTYYADSVKGRFTISRDNAKNTVYLQMNSLKPEDTAVYYCAAENYPRRPRYDYWGQGTQVTVSS	high polyreactivity
QVQLVESGGGLVQAGGSLRLSCAASGIIFPDYVMGWYRQAPGKERELVATITNDSSTTYADSVKGRFTISRDNAKNTVYLQMNSLKPEDTAVYYCAAPVDYQGDYWGQGTQVTVSS	low polyreactivity
QDQLVESGGGLVQAGGSLRLSCAASGLTLKENVMGWYRQAPGKERELFAAISTGASTYYADSVKGRFTISRDNAKNTVYLQMNSLKPEDTAVYYCAKRVTPWYGYWGQGTQVTVSS	high polyreactivity
QVQLVESGGGLVQAVGSLRLSCAASGRTFYSYAMGWYRQAPGKERELVAAISRTGGSTYYADSVKGRFTISLDNAKNTVYLQMNSLKPEDTAVYYCAAVYRRNEFGYWGQGTQVTVSS	high polyreactivity
QVQLVESGGGLVQAGGRLRLSCPPSGVTFTRNAMGWYRQAPGKERELVAAISSSAGSTSYADSVKGRLTISRDNAKNTVYLQMNSLKPEDTAVYYCATEGSYYSWVGKVGYRYQYHYWGHGTQVTVSS	high polyreactivity
QVQLVESGGGLVQAGGSLRLSCAASGSIFYRYAMGWYREAPGKERELVAAISSSGGSTYYADSVKGRFTISRDNAKNTVYSQMNSLKPEDTAVYYCNTDRYYTYDYWGQGTQVTVSS	low polyreactivity
QVQLVESGGGLVQAGGSLRLSCAASGSIFVGYVMGWYRQAPGKERELVAAISRSGGRTYYADSVKGRFTISRDNAKNTVYLQMNSLKPEDTAVYYCNADVIDLDYDYWGQGTQVTVSS	low polyreactivity
QVQLVESGGGLVQAGGSLRLSCAAYGRIFRYYAMGWYRQAPGKERELVAGISWRGSSTYYADSVKGRFTLSRDNAKNTVYLQMNSLKPEDTAVYYCNRDQSNIPVTGVRFYYWGQGTQVTVSS	high polyreactivity
QVQLVESGGGLVQAGGSLRLSCAASGSIFGANGMGWYRQAPGKESELVAASTSGGSTTYADYVKGRFTISRDNAKNTVYLQINSLKPEDTAVYYCAADECTPYWPVDNFDYWGQGTQVTVSS	low polyreactivity
QVQLVESGGGLVQAGGSLRLSCAASGRTLGKYAMGWYRQAPGKERELVAAIRWTGGNTYYADSVKGRFTISRDNAKNTVYLQMNSLKPEDPAGYYCNAVSFGRARHGGPVYGYDYWGQGTQVTVSS	high polyreactivity
QVQLVESGGGLVQAGGSLRLSCAASGSTFPYYVMGWYRQAPGKERELVAAISGSGTRTYYADSVKGRFTISRDNAKNTVYLQMNSLKPEDTAVYYCAARKYPQGFDYWGQGTQVTVSS	low polyreactivity
QVQLVESGGGLVQAGGSLRLSCAASGSIFKYYAMGWYRQAPGKERELVAAIDWSGGNTYADSVKGRFTISRDNAKNTVYLQMNSLKPEDTAVYYCNAPGFRRLWGFGYDYWGQGTQVTVSS	high polyreactivity
QVQLVESGGGLVQAGGSLRLSCAASGSTFGPYAMGWYRQAPGKERELVAAITSSGGTTYYADSVKGRFTISRDNAKNTVYLQMNSLKPEDTAVYYCNTRRHGWKGVAYDYWGQGTQVTVSS	low polyreactivity

Sequence	polyreactivity (PSR sort gate)
QVQLVESGGGLVQAGGSLRLSCAASGLIFGINAMGWYRQAPGKERELVASISRSTTRTYYADSVKGRFTISRDNAKNTVYLQMNSLKPEDTAVYYCAARQSPNRWMGYWGQGTQVTVSS	high polyreactivity
QVQLVESGGGLVQAAGSLLLSCAPSGFIFYYNAMGWYRQAPGKETELVATIRGSGGSTYYADSVKGRFTISRDYAKNTVYLQMNSLKPEDTAVYYCAASVQYRRLKKFYYWGQGTQVTVSS	high polyreactivity
QVQLVESGGGLVQAGGSLRLSCAASGRTFSYYAMGWYIQAPGKERELVAAINSSGGRTYYADSVKGRFTISRDNAKNTVYLQMNSLKPEDTAVYYCAARSYSTSSHHGYWGQGTQVTVSS	high polyreactivity
QVQLVESGGGLVQAGGSLRLSCAASGNIFSFNDVGGSRQAPGNEREWVAAITSSDSTNYADSVKGRFTISRDNAKNTVYLQMNSLKPEDTAVYYCATEILTAARDTVVYQFYLGYYYWGQGTQVTVSS	low polyreactivity
QVQLVESGVGLVQAGGSLRLSCAASVYTFFIYAMRWYRHAHGQERELVARIRATGDSTYYADSVKGRFTISRDNAKNTVYLQMNSLKPDDTAVYYFNVRPVYSYREYGYWGQGTQVTVSS	high polyreactivity
QVQLVESGGGLVQAGGSLRLSCAASGRTFYPNAMGWYRQAPGKERELVAAITWRSGSTYYADSVKGRFTISRDNAKNTVYLPMNSLKPEDTAVYYCNADSDYPYYPGKFDYWGQGTQVTVSS	low polyreactivity
QVQLVESGGGLVQAGVSLRLSSAASGSTFLYYAMGWYRQAPGKESEMVAAIDWSDTSTYFADSVKGRFTISRDIAKNTVYLQMNSLKTEDTAVYYCIREATYVYAAGYDYWGQGTQVTVSS	low polyreactivity
QVQLVESEGGLVQAGGSLRISCAASGRNFRTYDMGWYRQAPGKERELVAAISEEGGYTYYADSVKGRFTISRDNAKNTVYLQMNSLKPEDTAVYYCAKDRPGPLRWWFLYGYWGQGTQVTVSS	low polyreactivity
QVQLVESGGGLVQAGGSLRLSCAASGSIFIDYAMGWYRQAPGKERELVATISNSGTSTYYADSVKGRFTISRDNAKNTVYLQMNSLKPEDTAVYYCAAEAWPYGDYYWGQGTQVTVSS	low polyreactivity
QVQHAESGGGLVQAGGSLRLSCAASGSTSAKNVMGWYRQAPGKVRELVAAISRSGGRTYYADSVKGRFTISRDNAKNTVYLQMNSLNPEDTAVYYCAARSATNHADDYYYWGQGTQVTVSS	high polyreactivity
QVQLEESGGGLVQAGGSLRLSCAASGRIFGGYAMGWYRQAPGKERELVAAITSSGSTNYADSVKGRFTISRDNAKNTVYLQMNSLKPEDTAVYYCATDFKTVYYWWGMDYWGQGTQVTVSS	low polyreactivity
QVQLVESGGGLVQAGGSLRLSCAASGRIFTGYAMGWYRQAPGKERELVAVISSSTDRTYSADSVKGRFTISRDNAKNTVYFQMNSLKPEDTAVYYCAARPYRHKSRRYDYWGHGTQVTVSS	high polyreactivity
QVQLVESGGGLVQAGGSLRLSCAASGSTFYLNAMGWYRQAPGKEREFVAAIRGGGTSTRYADSVKGRFTISRDNAKNTVYLQMNSLKPEDTAVYFCAAPRVVYRGDYWGQGTQVTVSS	high polyreactivity
QVQLVESGGGLVQAGGSLRLSCAASGRTLVLYVMGWYRQAPGKERELVAAISSGGSTNYADSVKGRFTISRDNAKNTVYLQMNSLKPEDTAVYYCAARFVLRRDYGYGGQGTQVTVSS	high polyreactivity
QVQLVESGGGLVQAGGSLRLSCAASGSTLKRYAMGWYRQAPGKERELVARISRIGGSTFYADSVKGRFTISRDNAKNTVYLQMNSLNPEDTAVYYCAAVPLHYVYRADQAYYRYNYWGQGTQVTVSS	high polyreactivity
QVQLVESGGGLVQAGGSLRLSCAASGLTFEVYAMGWYRQARGKERELVAAISSGGGATYYADSVKGRFTISRDNAKNTVYLQMNSLKPEDTAVYYCAAVDPYERYVYWGQGTQVTVSS	low polyreactivity
QVQLVESGGGLVQAGGSLRLSCAASGSTFVWYAMGWYRQAPGKERELVASITSGGNTNYADSVKGRFTISRDNAKNTVYLQMNSLKPEDSAVYYCNAVRSQRSLSSRYYYWGQGTQVTVSS	low polyreactivity
QLQHVESWGGLVQAGGSLRLSCAASGRTFRANDKRSYRQAPGKQSELVAAISQSGGSRYYADSVKGRFTISRDNAKNTVYLQLNSLKPEDTAVYYCNALGRISNHTLYDYWGQGTQVTVSS	low polyreactivity
QVQLVESGGGLVQAGGSLRLSCAASGFTFYTYTMGWYRQAPGKERELVAVITSRGTRTYYADSVKGRFTISRDNAKNTVYLQMNSLKPEDTAVYYCNKGAGWSFGYWGQGTQVTVSS	high polyreactivity
QVQLVESGGGVGQAGGSLRLSCAASGYTFPDYAMGWYRQAPGKERELFAAIRSGGGTNYADSVKGRFTISRDNAKNTVYLLMNSLQPVDTAVYYSAKEWAGGLYDYWGQGTKVTVSS	low polyreactivity
QVQLVESGGGVVQAGGSLRLSCAACGSTFRSYAMGWYRQAPGTERELVAAISSGGRTYYADSVKGRFTITRDNAKNPVYLPMNSLKPEDTAVYYCAARLYAYRWYGYAFKYEYWGHGTQVTVSS	high polyreactivity
